From patent publication US20160251440A1 (Ablynx, published 2016)
Substitutions are numbered along the chain they refer to.

How the values were obtained:
[1] = biological target: T1, CXCR4 and IL-3Rα (CD123) co-expressed on MOLM-13 / THP-1 cells (human, UniProt P61073 1-352; P26951 19-378); assay: flow cytometry on MOLM-13 cells (IL-3Ra higher than CXCR4)
T1 construct: whole, on cells; two separate membrane proteins on one cell, not a complex; target of bispecifics on double-positive cells; also called CXCR4+/CD123+ cells
T1 sequence (P61073 whole entry, one chain of several): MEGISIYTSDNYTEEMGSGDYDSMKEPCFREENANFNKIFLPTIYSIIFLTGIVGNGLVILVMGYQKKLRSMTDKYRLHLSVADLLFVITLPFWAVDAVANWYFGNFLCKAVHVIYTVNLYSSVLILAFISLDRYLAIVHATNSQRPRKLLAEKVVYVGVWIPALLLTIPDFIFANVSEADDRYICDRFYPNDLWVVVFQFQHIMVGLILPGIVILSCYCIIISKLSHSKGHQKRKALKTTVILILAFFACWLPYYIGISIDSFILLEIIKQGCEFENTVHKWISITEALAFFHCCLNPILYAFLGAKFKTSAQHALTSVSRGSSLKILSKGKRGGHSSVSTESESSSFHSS

[2] = biological target: T2, recombinant IL-3Rα ectodomain (human, UniProt P26951 19-305); assay: ELISA on recombinant IL-3Ra ectodomain (panel 'IL-3Ra ELISA', lower left)
T2 construct: extracellular domain; also called recombinant IL-3Ra; biotinylated-IL-3Rα ectodomain
T2 sequence (looked up): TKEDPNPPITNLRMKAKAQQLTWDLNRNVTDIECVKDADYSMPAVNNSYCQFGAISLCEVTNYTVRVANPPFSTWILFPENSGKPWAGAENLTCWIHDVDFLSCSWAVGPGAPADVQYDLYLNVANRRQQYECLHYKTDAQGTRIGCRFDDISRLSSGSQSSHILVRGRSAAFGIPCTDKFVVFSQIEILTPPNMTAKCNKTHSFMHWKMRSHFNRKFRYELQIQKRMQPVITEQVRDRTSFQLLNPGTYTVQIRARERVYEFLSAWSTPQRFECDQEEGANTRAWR

[3] = biological target: T3, human IL12Rβ2, cell-expressed (human, UniProt Q99665 24-862); assay: cell-based or functional assay
T3 sequence (looked up): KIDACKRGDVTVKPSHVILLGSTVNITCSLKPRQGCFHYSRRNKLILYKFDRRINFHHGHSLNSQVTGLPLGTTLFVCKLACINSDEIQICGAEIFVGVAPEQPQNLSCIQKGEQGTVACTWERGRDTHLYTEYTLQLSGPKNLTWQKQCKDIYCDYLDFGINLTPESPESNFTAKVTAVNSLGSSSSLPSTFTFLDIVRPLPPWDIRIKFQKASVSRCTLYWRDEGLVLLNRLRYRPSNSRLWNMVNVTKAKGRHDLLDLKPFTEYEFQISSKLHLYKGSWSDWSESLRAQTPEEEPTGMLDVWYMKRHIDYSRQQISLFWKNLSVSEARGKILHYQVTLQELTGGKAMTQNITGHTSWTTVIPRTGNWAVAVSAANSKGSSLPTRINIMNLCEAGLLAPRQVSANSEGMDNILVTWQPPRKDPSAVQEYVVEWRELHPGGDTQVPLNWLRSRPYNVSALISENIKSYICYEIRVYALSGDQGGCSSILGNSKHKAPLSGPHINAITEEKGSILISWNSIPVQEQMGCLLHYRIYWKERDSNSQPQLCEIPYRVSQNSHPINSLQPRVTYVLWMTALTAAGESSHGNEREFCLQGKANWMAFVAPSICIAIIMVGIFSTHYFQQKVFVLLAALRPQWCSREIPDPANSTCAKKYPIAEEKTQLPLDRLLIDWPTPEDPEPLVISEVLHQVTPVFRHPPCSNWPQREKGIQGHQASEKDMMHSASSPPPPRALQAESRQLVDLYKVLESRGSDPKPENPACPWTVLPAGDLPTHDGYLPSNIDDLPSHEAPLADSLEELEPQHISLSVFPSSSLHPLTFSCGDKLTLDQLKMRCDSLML

[4] = biological target: T3, human IL12Rβ2, cell-expressed; assay: FACS, activated human T cells
[5] = biological target: T4, human IL12Rβ2 extracellular domain Fc-fusion (human, UniProt Q99665 24-622); assay: SPR Biacore T100, captured IL12Rβ2-Fc
T4 construct: extracellular domain; bought; also called IL12Rβ2-Fc; hIL-12Rβ2-Fc
T4 sequence (looked up): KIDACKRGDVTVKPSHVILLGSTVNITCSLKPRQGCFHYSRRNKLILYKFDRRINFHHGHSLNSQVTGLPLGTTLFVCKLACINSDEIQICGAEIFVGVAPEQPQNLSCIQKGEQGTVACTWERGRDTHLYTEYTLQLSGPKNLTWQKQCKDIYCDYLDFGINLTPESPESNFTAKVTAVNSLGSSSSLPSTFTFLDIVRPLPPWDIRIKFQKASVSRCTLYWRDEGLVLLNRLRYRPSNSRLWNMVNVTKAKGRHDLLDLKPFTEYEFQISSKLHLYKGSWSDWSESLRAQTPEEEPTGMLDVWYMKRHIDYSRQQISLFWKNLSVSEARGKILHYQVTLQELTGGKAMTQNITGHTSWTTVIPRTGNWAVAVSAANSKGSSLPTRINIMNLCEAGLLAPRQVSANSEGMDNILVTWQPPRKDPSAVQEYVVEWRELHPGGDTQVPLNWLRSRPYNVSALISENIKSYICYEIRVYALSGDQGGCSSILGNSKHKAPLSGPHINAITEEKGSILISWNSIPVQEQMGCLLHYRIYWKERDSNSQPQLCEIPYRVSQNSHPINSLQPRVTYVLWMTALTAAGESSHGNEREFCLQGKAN

[6] = biological target: T4, human IL12Rβ2 extracellular domain …; assay: competition ELISA, coated IL-12 + IL12Rβ2-Fc
[7] = biological target: T4, human IL12Rβ2 extracellular domain …; assay: competition ELISA, coated IL-12 + 3 nM IL12Rβ2-Fc
[8] = biological target: T5, human CD4, cell-expressed (human, UniProt P01730 26-458); assay: flow cytometry on MOLM-13 cells (CD4, no IL12R or IL23R), upper left panel
T5 construct: whole, on cells

[9] = biological target: T6, human IL12Rβ1, cell-expressed (human, UniProt P42701 24-662); assay: flow cytometry on isolated CD8+ T cells of donor D863, anti-Flag detection
T6 construct: whole, on cells; in the context of the heterodimeric receptor; also called IL12Rb1

[10] = biological target: T7, human CXCR4 (on cells, viral lipoparticles or membrane extracts) (human, UniProt P61073 1-352); assay: FACS, Jurkat cells
T7 construct: whole, on cells; also called hCXCR4 VLPs; CXCR4-lip
T7 sequence (P61073 whole entry): as the sequence (P61073 whole entry, one chain of several) above

[11] = biological target: T7, human CXCR4 (on cells, viral …); assay: FACS, Caki-CXCR4 cells
[12] = biological target: T7, human CXCR4 (on cells, viral …); assay: cell-based or functional assay
[13] = biological target: T7, human CXCR4 (on cells, viral …); assay: cell-based or functional assay; remark: listed apart in the source
[14] = biological target: T7, human CXCR4 (on cells, viral …); assay: ELISA, CXCR4 viral lipoparticles
[15] = biological target: T7, human CXCR4 (on cells, viral …); assay: FACS displacement of 30 nM biotin-SDF-1, Caki-CXCR4 cells
[16] = biological target: T2, recombinant IL-3Rα ectodomain; assay: ELISA on recombinant IL-3Ra ectodomain (both lower panels)
[17] = biological target: T6, human IL12Rβ1, cell-expressed; assay: cell-based or functional assay
[18] = biological target: T6, human IL12Rβ1, cell-expressed; assay: cell-based or functional assay; remark: listed apart in the source
[19] = biological target: T8, human IL12Rβ1 extracellular domain Fc-fusion (human, UniProt P42701 24-545); assay: SPR Biacore T100, captured IL12Rβ1-Fc
T8 construct: extracellular domain; bought; also called IL12Rβ1-Fc; hIL-12Rβ1-Fc; not shown: Fc part, captured by anti-hIgG

[20] = biological target: T8, human IL12Rβ1 extracellular domain …; assay: competition ELISA, coated IL-12 + IL12Rβ1-Fc
[21] = biological target: T8, human IL12Rβ1 extracellular domain …; assay: competition ELISA, coated IL-23 + IL12Rβ1-Fc
[22] = biological target: T8, human IL12Rβ1 extracellular domain …; assay: competition ELISA, coated IL-12 + 2 nM IL12Rβ1-Fc
[23] = biological target: T8, human IL12Rβ1 extracellular domain …; assay: competition ELISA, coated IL-23 + 2 nM IL12Rβ1-Fc
[24] = biological target: T5, human CD4, cell-expressed; assay: flow cytometry on MOLM-13 cells (CD4, no IL12R or IL23R), lower left panel

B1: 55A01-35GS-281F12 (bispecific antibody)
chain: EVQLVESGGGSVQAGGSLRLSCTTSGRALNMYVMGWFRQAPGNEREFVAATSSSGGSTSYPDSVKGRFTISRDNAKNTVYLQMNSLKPEDTAAYRCAASPYVSTPTMNILEEYRYWGQGTLVTVSSGGGGSGGGGSGGGGSGGGGSGGGGSGGGGSGGGGSEVQLVESGGGLVQAGDSLRLSCAASGRAFSRYAMGWFRQAPGKEREFVAAIGWGPSKTNYADSVKGRFTISRDNAKNTVYLQMNTLKPEDTAVYSCAAKFVNTDSTWSRSEMYTYWGQGTLVTVSS
notes: also called CD123#2-CXCR4#2; 55A01-281F12
Question: B1 was tested. Which “EC50 (read off the curve)” value [1] did it give?
Answer: ~0.01 µM

Question: And the “EC50 (read off the curve)” value [2]?
Answer: ~0.001 µM

B2: IL12Rb2#1: 135B08 (VHH)
VHH: EVQLVESGGRLVQAGDSLRLSCAASGRTFISYRMGWFRQAPGKEREFVAALRWSSSNIDYTYYADSVKGRFSISGDYAKNTVYLQMNSLKAEDTAVYYCAASTRWGVMESDTEYTSWGQGTLVTVSS
notes: also called IL12Rβ2#1; LG135B08
Question: How did the “IC50, IFNγ release, PBMC D840” value [3] turn out when B2 was run?
Answer: 0.0135 µM

Question: And the “IC50, IFNγ release, T cells D839” value [3]?
Answer: 0.051 µM

Question: And the EC50 [4]?
Answer: 0.0015 µM

Question: What about the Kd [5] of the same binder?
Answer: 0.0027 µM

Question: What about the koff [5] of the same binder?
Answer: 0.00057 s⁻¹

Question: What about the kon [5] of the same binder?
Answer: 210000 M⁻¹ s⁻¹

Question: And the IC50 [6]?
Answer: 0.0042 µM

Question: What about the IC50 [7] of the same binder?
Answer: 0.0042 µM

Question: Does B2 bind [8]?
Answer: no binding (tested: 1E-6 M)

Question: Does B2 bind [9]?
Answer: no binding (tested: 250 nM)

B3: IL12Rb2#2: 135A07 (VHH)
VHH: B2 VHH with I30T, A49S, S56G
notes: also called IL12Rβ2#2; LG135A07
Question: B3 was tested. Which “IC50, IFNγ release, PBMC D840” value [3] did it give?
Answer: 0.04 µM

Question: What about the “IC50, IFNγ release, T cells D839” value [3] of the same binder?
Answer: 0.067 µM

Question: And the EC50 [4]?
Answer: 0.0018 µM

Question: What about the Kd [5] of the same binder?
Answer: 0.0069 µM

Question: And the koff [5]?
Answer: 0.0018 s⁻¹

Question: And the kon [5]?
Answer: 270000 M⁻¹ s⁻¹

Question: What about the IC50 [6] of the same binder?
Answer: 0.015 µM

Question: What about the IC50 [7] of the same binder?
Answer: 0.015 µM

Question: Does B3 bind [8]?
Answer: no binding (tested: 1E-6 M)

B4: 14D09 (VHH)
VHH: EVQLVESGGGLVQAGGSLRLSCVASGISSSKRNMGWYRQAPGKQRESVATISSGGNKDYTDAVKDRFTISRDTTKNTVYLQMNSLKPEDTAVYYCKIEAGTGWATRRGYTYWGQGTLVTVSS
notes: also called CXCR4#1; 14D9
Question: B4 was tested. Which EC50 [10] did it give?
Answer: 0.011 µM

Question: What about the EC50 [11] of the same binder?
Answer: 0.0099 µM

Question: And the “IC50, SDF-1 chemotaxis, Jurkat” value [12]?
Answer: 0.011 µM

Question: And the “IC50, CXCL-12 chemotaxis, Jurkat E6-1” value [13]?
Answer: 0.0104 µM

Question: And the “IC50, CXCL-12 chemotaxis, MOLM-13” value [13]?
Answer: 0.00862 µM

Question: And the EC50 [14]?
Answer: 0.00728 µM

Question: What about the IC50 [15] of the same binder?
Answer: 0.0184 µM

Question: Does B4 bind [16]?
Answer: no binding (tested: 1E-6 M)

B5: 14A02 (VHH)
VHH: B4 VHH with K31I, N83S, L117Q
Question: What does the source list for B5?
Answer: EC50 [10]: 0.00115 µM; EC50 [11]: 0.004 µM; IC50, SDF-1 chemotaxis, Jurkat [12]: 0.00095 µM; EC50 [14]: 0.00073 µM; IC50 [15]: 0.0041 µM

B6: 14E02 (VHH)
VHH: B4 VHH with K31I, L117Q
notes: also called 14E2
Question: For B6, which EC50 [11] is on record?
Answer: 0.0026 µM

Question: What about the EC50 [14] of the same binder?
Answer: 0.00078 µM

Question: And the IC50 [15]?
Answer: 0.0135 µM

B7: IL12Rb1#31: 148F09 (VHH)
VHH: EVQLVESGGGLVQTGGSLRLSCAASGRTPSIIAMGWFRQTPGKEREFVGEIILSKGFTYYADSVKGRFTISRANAKNTITMYLQMNSLKSEDTAVYYCAARQNWSGNPTRTNEYEYWGQGTLVTVSS
notes: also called IL12Rβ1#31; LG148F09
Question: Which results are given for B7?
Answer: IC50, IFNγ release, PBMC D840 [17]: 0.0935 µM; IC50, IL-17 release, PBMC D840 [18]: 0.21 µM; Kd [19]: 0.023 µM; koff [19]: 0.017 s⁻¹; kon [19]: 720000 M⁻¹ s⁻¹; IC50 [20]: 0.022 µM; IC50 [21]: 0.01 µM; IC50 [22]: 0.022 µM; IC50 [23]: 0.01 µM; binding result [24]: no binding (tested: 1E-6 M)
